Test [1] deals with human BCMA on U266 cells (human) (UniProt Q02223). Description: cell-based or functional assay.
For test [2], the target named is recombinant human BCMA-his protein (Acro biosystems, Cat #BCA-H522Y) (human) (UniProt Q02223). Description: SPR Biacore T200, antibody captured on Protein G chip, BCMA-his flowed.
For test [3] the target is unchanged. As to the kind of experiment: competitive ELISA: coated human BCMA-his, blocked ligand biotin-labeled BAFF-Fc. On the technique in general: In an ELISA, binding on a coated surface is turned into a signal by an enzyme label.
Test [4] shares this target. Described as above. This is another data set of the same source.
For test [5] the target is unchanged. As to the kind of experiment: capture ELISA: antibody captured on the plate, biotin-labeled human BCMA-his detected with streptavidin-HRP.
For test [6] the target is unchanged. As to the kind of experiment: BLI Octet RED96, antibody on AHC sensor, BCMA-his in solution. In general terms: In BLI a coated tip is dipped into the sample, and binding shifts an interference pattern.
The target is the same in test [7]. As to the kind of experiment: competitive ELISA: antibody pre-mixed with biotin-labeled human BCMA-his, competitor coated BCMA BM1 (self-competition).
The target is the same in test [8]. Described as above. The source holds these as a separate data set.
The target is the same in test [9]. As to the kind of experiment: capture ELISA: antibody captured on the plate, biotin-labeled human BCMA-his detected with streptavidin-HRP. This is another data set of the same source.
Test [10] shares this target. As to the kind of experiment: SPR Biacore, antibody captured by anti-human IgG on CM5, BCMA-his flowed.
Test [11] addresses T1, human BCMA on U266 cells (human, UniProt Q02223 1-184).
T1 construct: whole, on cells; Endogenous protein of the cell line; also called human BCMA on the cell surface; U266 cells expressing human BCMA
T1 sequence (looked up): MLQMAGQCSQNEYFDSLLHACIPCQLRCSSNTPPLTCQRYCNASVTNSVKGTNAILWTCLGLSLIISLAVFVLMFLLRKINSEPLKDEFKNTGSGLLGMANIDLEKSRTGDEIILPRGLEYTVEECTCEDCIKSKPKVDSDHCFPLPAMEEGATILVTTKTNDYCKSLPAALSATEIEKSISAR
As to the kind of experiment: cell based binding FACS on U266 cells, MFI.

Test [12] has as its target T2, human BCMA on 293F-BCMA cells (human, UniProt Q02223 1-184).
T2 construct: Stably expressed on 293F cells prepared in house; also called 293F cells expressing human BCMA; Full length human BCMA
T2 sequence: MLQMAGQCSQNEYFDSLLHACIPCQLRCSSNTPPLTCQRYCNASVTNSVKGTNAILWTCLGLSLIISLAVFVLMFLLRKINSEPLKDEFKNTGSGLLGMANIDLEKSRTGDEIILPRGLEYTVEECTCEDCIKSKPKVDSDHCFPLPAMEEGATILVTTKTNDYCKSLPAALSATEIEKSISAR
As to the kind of experiment: cell based binding FACS on 293F cells expressing human BCMA, MFI.

For test [13], the target named is T3, cynomolgus BCMA-his protein (Acro biosystems, Cat #BCA-052H7) (cynomolgus monkey, UniProt A0A2K5UD97 1-53).
T3 construct: Bought; also called cynomolgus monkey BCMA protein; not shown: his tag
As to the kind of experiment: indirect ELISA on coated cynomolgus BCMA-his.

Test [14] has as its target T1, human BCMA on U266 cells. As to the kind of experiment: cell-based or functional assay.
Test [15] has as its target recombinant human BCMA-his protein (Acro biosystems, Cat #BCA-H522Y) (human) (UniProt Q02223). Description: SPR Biacore, antibody captured on CM5 chip, BCMA-his flowed.
Test [16] shares this target. As to the kind of experiment: competitive ELISA: antibody pre-mixed with biotin-labeled human BCMA-his, competitor coated BCMA BM1.
For test [17] the target is unchanged. As to the kind of experiment: SPR Biacore T200, antibody captured by anti-mouse IgG on CM5, BCMA-his flowed. In general terms: Surface plasmon resonance follows binding to a sensor surface in real time, without labels.
For test [18] the target is unchanged. Description: competitive ELISA: antibody pre-mixed with biotin-labeled human BCMA-his, competitor coated BCMA BM1. The source holds these as a separate data set.

Where two headings read alike, the source gives them in different places.

T3 sequence (A0A2K5UD97 entry or part of it): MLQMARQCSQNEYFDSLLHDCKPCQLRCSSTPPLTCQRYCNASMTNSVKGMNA

Regarding “isotype control antibody (as isotype control-DT3C conjugate)”, in [1], the Max inhibition on cell viability (%), antibody-DT3C conjugate on U266 cells was 17.8%.

The term Kd denotes the constant that tells how readily two partners part at equilibrium. By koff is commonly meant the first-order rate constant of dissociation. The kon is the rate constant with which the complex forms. As a reminder, the IC50 is the midpoint of a concentration-inhibition curve. As a reminder, the EC50 is the concentration that produces a half-maximal response. Consider “BCMA BM1, full-length antibody containing the BCMA-binding portion of GSK2857916”, for which the Kd stood at 0.742 nM in test [2], 0.436 nM in test [6] and 0.578 nM in test [10]. Moreover, the koff was found to be 0.000245 s⁻¹ in test [2], 0.000125 s⁻¹ in [6] and 0.000141 s⁻¹ in test [10]. In addition, the kon in test [2] stood at 330000 M⁻¹ s⁻¹; in test [6], 286000 M⁻¹ s⁻¹; in test [10], 244000 M⁻¹ s⁻¹. Also, the IC50 in test [3] is 12.6 nM; in test [4], 10.7 nM; in test [7], 2.64 nM; in test [8] it was 2.89 nM. Moreover, the results for the EC50 in [5] and in test [9] were 0.569 nM and 1.11 nM, respectively.

B1: BCMA BM1, full-length antibody containing the BCMA-binding portion of GSK2857916 (antibody, human IgG1, kappa, V domains shown)
VH: QVQLVQSGAEVKKPGSSVKVSCKASGGTFSNYWMHWVRQAPGQGLEWMGATYRGHSDTYYNQKFKGRVTITADKSTSTAYMELSSLRSEDTAVYYCARGAIYDGYDVLDNWGQGTLVTVSS
VL: DIQMTQSPSSLSASVGDRVTITCSASQDISNYLNWYQQKPGKAPKLLIYYTSNLHSGVPSRFSGSGSGTDFTLTISSLQPEDFATYYCQQYRKLPWTFGQGTKLEIKR
notes: Prepared in house from the full heavy and light chains; also called benchmark; positive control
B1: the figures for the EC50 (in the test with human BCMA on U266 cells [11]; in test [12]; in [13]) were 17.7 nM, 8.86 nM and 0.186 nM, respectively. In addition, the “IC50 (nM), cell killing activity of antibody-DT3C conjugate on U266 cells (internalization assay)” value with human BCMA on U266 cells [14] was found to be 1.55 nM. For the same molecule, in the test with human BCMA on U266 cells [14], the “Max inhibition on cell viability (%), antibody-DT3C conjugate on U266 cells” value came to 97%.

B2: mouse anti-BCMA monoclonal antibody B1H2 (antibody, V domains shown)
VH: EVQLQQSGPELVKPGASVKMSCKASGYTLTNYVMHWMKQKPGQGLEWIGFIIPFNDGTKYNEHFKGKATLTSDKSSNTAYMVLSSLTSEDSAVYYCARYDFEGYFDVWGAGTTVTVSS
VL: DIQMTQTTSSLSASLGDRVTISCSASQDITNFLNWYQQKPDGTVKLLIYSTSRLHSGVPSRFSGSGSGTDYSLTISNLEPEDIATYYCQQYSNLPWTFGGGTNLEIK
notes: Hybridoma-derived mouse mAb purified on Protein A; also called Mouse B1H2; mouse antibody B1H2
For the molecule B2, the IC50 in [3] was determined as 8.28 nM; in test [4], 6.09 nM; in test [16] it was 0.282 nM; in [18], 1.03 nM. The EC50 with human BCMA on U266 cells [11] was 0.885 nM; in test [5], 0.177 nM; in test [12] it was 0.613 nM; in test [13] it was 31.4 nM; in [9], 0.702 nM. Moreover, the dissociation constant (Kd) worked out at 0.0757 nM in test [15] and 0.203 nM in [17]. Moreover, the values for the koff in [15] and in [17] were 0.000783 s⁻¹ and 0.0011 s⁻¹, respectively. Moreover, the kon in test [15] amounted to 1.03e+07 M⁻¹ s⁻¹; in test [17], 5.42e+06 M⁻¹ s⁻¹.
